Where a chain is given by its changes, count along the chain named. Numbers in names are those of the source.
What was measured:
Test in all cases: SEC
[1] = target: MtbGmhA Q173A mutant (M. tuberculosis) (UniProt P9WGG1)
[2] = target: MtbGmhA S123A mutant (M. tuberculosis) (UniProt P9WGG1)
[3] = target: MtbGmhA S126A mutant (M. tuberculosis) (UniProt P9WGG1)
[4] = target: MtbGmhA T122A mutant (M. tuberculosis) (UniProt P9WGG1)
[5] = target: the molecule itself

With “MtbGmhA Q173A mutant (from UniProt P9WGG1 1-196) (enzyme)” the stoichiometry N [1] was 4.

“MtbGmhA S123A mutant (from UniProt P9WGG1 1-196) (enzyme)” gave a stoichiometry N [2] of 4.

“MtbGmhA S126A mutant (from UniProt P9WGG1 1-196) (enzyme)” was tested, and the stoichiometry N [3] was 4.

With “MtbGmhA T122A mutant (from UniProt P9WGG1 1-196) (enzyme)” the stoichiometry N [4] was 4.

B1: MtbGmhA N53G mutant (enzyme)
chain: MCTARTAEEIFVETIAVKTRILNDRVLLEAARAIGDRLIAGYRAGARVFMCGGGGSAADAQHFAAELTGHLIFDRPPLGAEALHANSSHLTAVANDYDYDTVFARALEGSARPGDTLFAISTSGNSMSVLRAAKTARELGVTVVAMTGESGGQLAEFADFLINVPSRDTGRIQESHIVFIHAISEHVEHALFAPRQ
notes: not shown: His6, N-terminal, kept
B1 was tested, and the “stoichiometry N” value [5] was 4.

B2: MtbGmhA S121G mutant (enzyme)
chain: B1 chain with G53N, S121G
notes: as for B1
B2 was tested, and the “stoichiometry N” value [5] was 4.
